What all share (test): EMSA
One data set concerns the target T1, GST-hHSF1 (human) (UniProt Q00613).
T1 sequence: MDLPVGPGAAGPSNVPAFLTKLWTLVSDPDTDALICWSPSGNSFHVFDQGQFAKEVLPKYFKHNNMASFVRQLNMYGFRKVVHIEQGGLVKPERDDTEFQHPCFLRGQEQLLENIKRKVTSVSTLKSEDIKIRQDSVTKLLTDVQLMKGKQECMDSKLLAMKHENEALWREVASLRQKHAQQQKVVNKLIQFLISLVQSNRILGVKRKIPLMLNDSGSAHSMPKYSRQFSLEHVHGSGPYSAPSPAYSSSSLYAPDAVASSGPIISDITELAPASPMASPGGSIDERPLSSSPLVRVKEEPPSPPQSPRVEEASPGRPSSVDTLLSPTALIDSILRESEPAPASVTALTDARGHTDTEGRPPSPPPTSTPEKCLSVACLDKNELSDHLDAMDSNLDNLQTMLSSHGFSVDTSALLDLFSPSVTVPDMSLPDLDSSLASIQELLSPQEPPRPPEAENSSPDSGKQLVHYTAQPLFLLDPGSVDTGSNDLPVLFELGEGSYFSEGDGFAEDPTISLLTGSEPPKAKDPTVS
The note with it: binding buffer ([…], room temperature 2 h.

Another data set addresses T2, GST-hHSF2 (human) (UniProt Q03933).
T2 sequence: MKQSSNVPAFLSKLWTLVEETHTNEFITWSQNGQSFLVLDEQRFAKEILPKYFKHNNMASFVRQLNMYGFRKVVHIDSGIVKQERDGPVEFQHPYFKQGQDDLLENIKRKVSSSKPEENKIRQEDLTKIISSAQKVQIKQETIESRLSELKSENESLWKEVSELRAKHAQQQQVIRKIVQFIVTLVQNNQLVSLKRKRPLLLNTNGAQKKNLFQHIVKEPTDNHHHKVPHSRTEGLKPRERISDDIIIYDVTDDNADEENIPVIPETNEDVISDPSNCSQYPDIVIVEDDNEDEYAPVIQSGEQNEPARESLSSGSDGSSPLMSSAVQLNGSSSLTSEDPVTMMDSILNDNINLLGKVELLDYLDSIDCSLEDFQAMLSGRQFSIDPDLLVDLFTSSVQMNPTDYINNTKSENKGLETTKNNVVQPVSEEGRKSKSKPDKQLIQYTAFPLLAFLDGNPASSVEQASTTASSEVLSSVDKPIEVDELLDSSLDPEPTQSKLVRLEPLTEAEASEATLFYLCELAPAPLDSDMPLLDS
Conditions: binding buffer ([…], room temperature 2 h.

Another data set concerns the target T3, dHSF (Drosophila melanogaster, UniProt P22813 1-691).
T3 sequence: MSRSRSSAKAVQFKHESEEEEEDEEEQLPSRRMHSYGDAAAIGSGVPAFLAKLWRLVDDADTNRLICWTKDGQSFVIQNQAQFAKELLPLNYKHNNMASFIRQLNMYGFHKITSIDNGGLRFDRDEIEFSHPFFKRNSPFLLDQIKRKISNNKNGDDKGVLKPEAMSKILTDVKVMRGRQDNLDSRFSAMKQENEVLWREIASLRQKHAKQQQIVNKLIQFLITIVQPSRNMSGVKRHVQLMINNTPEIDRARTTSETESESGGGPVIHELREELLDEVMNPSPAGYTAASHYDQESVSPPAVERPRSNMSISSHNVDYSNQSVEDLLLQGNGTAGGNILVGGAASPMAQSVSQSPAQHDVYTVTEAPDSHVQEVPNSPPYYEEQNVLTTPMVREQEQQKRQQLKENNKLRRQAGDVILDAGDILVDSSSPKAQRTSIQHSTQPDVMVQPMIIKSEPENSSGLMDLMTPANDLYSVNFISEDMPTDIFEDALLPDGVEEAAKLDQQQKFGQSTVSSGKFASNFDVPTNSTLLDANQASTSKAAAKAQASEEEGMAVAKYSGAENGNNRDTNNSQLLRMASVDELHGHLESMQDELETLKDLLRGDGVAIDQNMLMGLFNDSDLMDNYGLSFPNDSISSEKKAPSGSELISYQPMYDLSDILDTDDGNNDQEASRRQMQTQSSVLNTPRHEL

Bounds are passed on as bounds.

The Kd is the free concentration of one partner at which half of the binding sites on the other are occupied at equilibrium, for simple one-to-one binding. Low values mean higher affinity, high ones lower affinity. Take “GGGAAUGGAUCCACAUCUACGAAUUCAAUCAAGUCCCCAGACUCAGCAACACUGGACAGCGAUAUGCAGAUAACCAAGACCAAUUCACUCCAGUUCACUGCAGACUUGACGAAGCUU [hHSF2-R5-2]”: the equilibrium dissociation constant (Kd) with GST-hHSF1 (human) and with GST-hHSF2 (human) was less than 20 nM throughout.

As for “GGGAAUGGAUCCACAUCUACGAAUUCCACUCCAUAGUAUCUAGAAGCCCUGCCGAAAACGAGAGCGCUUACGCUUAUAAAUGAUCAACCUACCUCGUUCACUGCAGACUUGACGAAGCUU [hHSF1-R5-1]”, the dissociation constant Kd with GST-hHSF1 (human) and in the data set with GST-hHSF2 (human) was less than 20 nM each time.

B1: hHSF2-R5-2 (structured_RNA)
RNA: GGGAAUGGAUCCACAUCUACGAAUUCAAUCAAGUCCCCAGACUCAGCAACACUGGACAGCGAUAUGCAGAUAACCAAGACCAAUUCACUCCAGUUCACUGCAGACUUGACGAAGCUU
For the molecule B1, the Kd with dHSF is roughly 70 nM.

B2: hHSF1-R5-1 (structured_RNA)
RNA: GGGAAUGGAUCCACAUCUACGAAUUCCACUCCAUAGUAUCUAGAAGCCCUGCCGAAAACGAGAGCGCUUACGCUUAUAAAUGAUCAACCUACCUCGUUCACUGCAGACUUGACGAAGCUU
In turn, B2 gave a Kd with dHSF of roughly 70 nM.

The values above are taken from paper PMC3753675.
